B1: caspase-8 polypeptide: full-length caspase-8 polypeptide, over-expressed (protein, UniProt Q14790 1-479, looked up)
chain: MDFSRNLYDIGEQLDSEDLASLKFLSLDYIPQRKQEPIKDALMLFQRLQEKRMLEESNLSFLKELLFRINRLDLLITYLNTRKEEMERELQTPGRAQISAYRVMLYQISEEVSRSELRSFKFLLQEEISKCKLDDDMNLLDIFIEMEKRVILGEGKLDILKRVCAQINKSLLKIINDYEEFSKERSSSLEGSPDEFSNGEELCGVMTISDSPREQDSESQTLDKVYQMKSKPRGYCLIINNHNFAKAREKVPKLHSIRDRNGTHLDAGALTTTFEELHFEIKPHDDCTVEQIYEILKIYQLMDHSNMDCFICCILSHGDKGIIYGTDGQEAPIYELTSQFTGLKCPSLAGKPKVFFIQACQGDNYQKGIPVETDSEEQPYLEMDLSSPQTRYIPDEADFLLGMATVNNCVSYRNPAEGTWYIQSLCQSLRERCPRGDDILTILTEVNYEVSNKDDKKNMGKQMPQPTFTLRKKLVFPSD
modifications: full-length
notes: full-length caspase-8 polypeptide, over-expressed
B2: renin: another aspartyl protease (protein, UniProt P00797 67-406, looked up)
Renin: LTLGNTTSSVILTNYMDTQYYGEIGIGTPPQTFKVVFDTGSSNVWVPSSKCSRLYTACVYHKLFDASDSSSYKHNGTELTLRYSTGTVSGFLSQDIITVGGITVTQMFGEVTEMPALPFMLAEFDGVVGMGFIEQAIGRVTPIFDNIISQGVLKEDVFSFYYNRDSENSQSLGGQIVLGGSDPQHYEGNFHYINLIKTGVWQIQMKGVSVGSSTLLCEDGCLALVDTGASYISGSTSSIEKLMEALGAKKRLFDYVVKCNEGPTLPDISFHLGGKEYTLTSADYVFQESYSSKKLCTLAIHAMDIPPPTGPTWALGATFIRKFYTEFDRRNNRIGFALAR
B3: casp8p41 polypeptide: procaspase-8 cleavage fragment p41 generated by HIV protease (SEQ ID NO:2) (protein, listed as Homo sapiens)
chain: MDFSRNLYDIGEQLDSEDLASLKFLSLDYIPQRKQEPIKDALMLFQRLQEKRMLEESNLSFLKELLFRINRLDLLITYLNTRKEEMERELQTPGRAQISAYRVMLYQISEEVSRSELRSFKFLLQEEISKCKLDDDMNLLDIFIEMEKRVILGEGKLDILKRVCAQINKSLLKIINDYEEFSKERSSSLEGSPDEFSNGEELCGVMTISDSPREQDSESQTLDKVYQMKSKPRGYCLIINNHNFAKAREKVPKLHSIRDRNGTHLDAGALTTTFEELHFEIKPHDDCTVEQIYEILKIYQLMDHSNMDCFICCILSHGDKGIIYGTDGQEPPIYELTSQFTGLKCPSLAGKPKVF

Columns and labels:
[1] = test system: NFκB-mediated transcription; test: NFκB activation in an over-expression system; format: cell-based
procaspase-8 = molecular target: T1, procaspase-8 (Homo sapiens, UniProt Q14790, A331P); test: in vitro cleavage of 35S methionine-labeled procaspase-8, autoradiography and immunoblotting; format: biochemical; details: 50 mM NaOAc (pH 4.9), 200 mM NaCl, 5 mM DTT, 10% glycerol
T1 construct: amino acids 355 and 356 were mutated in full-length caspase-8; made in house; host or cells: cell-free TNT Quick coupled transcription/translation system (Promega)
T1 sequence (Q14790 whole entry A331P): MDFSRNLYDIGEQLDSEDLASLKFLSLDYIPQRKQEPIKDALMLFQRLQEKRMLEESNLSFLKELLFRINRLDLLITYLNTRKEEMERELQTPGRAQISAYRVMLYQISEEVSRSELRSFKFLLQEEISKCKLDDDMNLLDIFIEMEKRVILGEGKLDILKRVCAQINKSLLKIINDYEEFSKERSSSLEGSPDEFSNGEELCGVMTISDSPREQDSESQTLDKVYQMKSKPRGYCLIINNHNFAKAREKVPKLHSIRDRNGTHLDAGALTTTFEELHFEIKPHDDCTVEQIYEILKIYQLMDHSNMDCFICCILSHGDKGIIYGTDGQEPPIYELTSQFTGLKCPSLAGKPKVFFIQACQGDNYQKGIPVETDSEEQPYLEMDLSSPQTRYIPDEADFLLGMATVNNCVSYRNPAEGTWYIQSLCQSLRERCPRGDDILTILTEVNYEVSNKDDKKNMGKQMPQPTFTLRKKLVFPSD
Method: The fusion polypeptide, Flag-procaspase-8-Myc, was prepared by TNTR Quick coupled transcription/translation systems (Promega, Madison, Wis.). Briefly, 1 μg of pcDNA3Flag-procaspase-8-Myc or pcDNA3Flag (as a control) was added to a 50 μL nuclease-free reaction mixture containing 40 μL of TNT Quick Master Mix and 1 μL of 1 mM […] methionine. The reaction was carried out at 30° C. for 90 minutes and stopped by adding 20 μg/mL of cycloheximide (CI-IX) and 200 μg/mL of RNase and incubating the mixture at 30° C. for 5 minutes. ^35S methionine-labeled Flag-procaspase-8-Myc fusion polypeptide was prepared by adding 40 μCi of ^35S methionine instead of 1 μL of 1 mM methionine. The reaction mixture was separated by SDS-PAGE on a 10-15% gel and visualized by autoradiography. […]
The ^35S methionine-labeled Flag-procaspase-8-Myc fusion polypeptide produced in vitro was incubated with HIV-1 protease purchased from Sachem Biosciences (King of Prussia, Pa.). […] After cleavage of ^35S methionine-labeled Flag-procaspase-8-Myc fusion polypeptide by HIV-1 protease, the products were analyzed by autoradiography (FIG. 1C, top) and immunoblotting using antibodies directed against the Flag (FIG. 1C, middle) and Myc (FIG. 1C, bottom) epitopes. […]

[2] = test system: cytosols from Jurkat T cells; test: apoptotic signaling cascade in cell-free system (Jurkat cell extracts), Western blot; format: biochemical; details: added to cytosols from Jurkat T cells
Method: The ability of the procaspase-8 cleavage fragment p41 (hereafter referred to as casp8p41) to initiate an apoptotic signaling cascade in a cell-free system was tested. The cell free system was used previously to reveal the signaling pathway used by HIV protease to initiate apoptosis.
Jurkat cells were purchased from ATCC (Rockville, Md.) and maintained in Dulbecco's Modified Eagle Medium (DMEM) or RPMI1640 (GIBCO) supplemented with 10% (v/v) FBS, 1% penicillin and streptomycin, and 2 mM L-glutamine. The cells were incubated at 37° C. in a humidified atmosphere containing 5% CO2 and 95% air. Jurkat cell extracts were prepared as described previously (Nie et al., Cell Death Differ., 9:1172-84 (2002)). Briefly, cells (0.5×10^6 cells/mL) were harvested by centrifugation at 16000×g for 5 minutes at 4° C. The cell pellet was washed twice with ice-cold PBS (pH 7.4), followed by a single wash with ice-cold caspase buffer (20 mM PIPES, 100 mM NaCl, 10 mM DTT, 1 mM EDTA, 0.1% CHAPS, 250 mM sucrose, pH 7.2). […] Polypeptide concentrations were determined using a BCA protein assay kit (Pierce Chemical Co., Rockford, Ill.), and the resultant suspension was incubated with either HIV protease or casp8p41 polypeptide. […]

HeLa cells = test: transient expression in HeLa cells, TUNEL, active caspase-3 and Annexin-V staining; format: cell-based; details: cells transfected with pEGFPC1casp8p41
Method: The effect of transient expression of casp8p41 polypeptide in HeLa cells was investigated. HeLa cells were purchased from ATCC and maintained in Dulbecco's Modified Eagle Medium (DMEM; GIBCO) supplemented with 10% (v/v) FBS, 1% penicillin and streptomycin, and 2 mM L-glutamine. The cells were incubated at 37° C. in a humidified atmosphere containing 5% CO2 and 95% air. Exponentially growing cells were seeded at 2500-5000 cells/well in a 96-well plate. The cells were transfected with a DNA plasmid expressing GFP (pEGFPC1, BD Biosciences Clontech, Palo Alto, Calif.), or with a plasmid expressing casp8p41 polypeptide as a fusion to the C-terminus of GFP (pEGFPC1casp8p41) using Fugene 6 (2 μL per μg DNA), according to the manufacturer's protocol. […]
HeLa cells transfected with pEGFPC1 or pEGFPC1casp8p41 were analyzed by confocal microscopy following staining with DAPI to visualize cell nuclei and TUNEL staining to detect apoptosis. […]
Cells transfected with pEGFPC1 and pEGFPC1casp8p41 were also subjected to Annexin-V PE, active caspase-3, and TUNEL staining and analyzed for cell death by flow cytometry, gating specifically on GFP-positive cells. […] GFP and annexin-V PE double-positive cells were analyzed by flow cytometry at 30,000 events per sample. […]

primary human T cells = test: transfection of primary human T cells, viability by light scatter and apoptosis by TUNEL; format: cell-based; details: PBL from HIV-negative donors transfected with pcDNA3 HA casp8p41, compared with GSK3β control vector
Method: Primary human T cells were tested for their response to expression of casp8p41 polypeptide by transfecting cells with a vector encoding casp8p41 polypeptide, or with a control vector encoding glycogen synthase kinase 3β (GSK3β; Kim et al., J Biol Chem., 278:13995-14001 (2003)). PBL from HIV-negative donors were isolated and transfected with 2 μg/10×10^6 cells with pcDNA3 HA GSK3β (Ougolkov et al., Cancer Res., 65:2076-2081 (2005)) or pcDNA3 HA casp8p41 using nucleofectin (AMAXA, MD) and program U14. Transfected cells were analyzed for changes in viability by light scatter or for apoptosis by TUNEL staining.

Molecule | NFκB activation [1] | cleavage of Flag-procaspase-8-Myc fusion polypeptide (procaspase-8) | apoptotic signaling: Bid cleavage, cytochrome c release, caspase-9 and PARP cleavage [2] | TUNEL positivity and active caspase-3 expression, flow cytometry gated on GFP-positive cells (HeLa cells) | level of apoptosis (primary human T cells)
B1 | increase NFκB activation | – | – | – | –
B2 | – | did not cause procaspase 8 cleavage | – | – | –
B3 | two-fold more than full-length caspase-8 polypeptide | – | resulted in cleavage of Bid to p15 tBid, release of cytochrome c from the mitochondrial fraction into the cytosol, and cleavage of caspase-9 and PARP | induces TUNEL positivity and active caspase-3 expression | induced a significantly greater level of apoptosis

— US20100062462A1, “IMMUNODEFICIENCY VIRUSES” (priority 2005, published 2010)
